Experimental data reported in IntAct's records for PubMed 35512704.

B1: Speckle-type POZ protein (Homo sapiens), O43791 (parent)
chain: MSRVPSPPPPAEMSSGPVAESWCYTQIKVVKFSYMWTINNFSFCREEMGEVIKSSTFSSGANDKLKWCLRVNPKGLDEESKDYLSLYLLLVSCPKSEVRAKFKFSILNAKGEETKAMESQRAYRFVQGKDWGFKKFIRRDFLLDEANGLLPDDKLTLFCEVSVVQDSVNISGQNTMNMVKVPECRLADELGGLWENSRFTDCCLCVAGQEFQAHKAILAARSPVFSAMFEHEMEESKKNRVEINDVEPEVFKEMMCFIYTGKAPNLDKMADDLLAAADKYALERLKVMCEDALCSNLSVENAAEILILADLHSADQLKTQAVDFINYHASDVLETSGWKSMVVSHPHLVAEAYRSLASAQCPFLGPPRKRLKQS
partner: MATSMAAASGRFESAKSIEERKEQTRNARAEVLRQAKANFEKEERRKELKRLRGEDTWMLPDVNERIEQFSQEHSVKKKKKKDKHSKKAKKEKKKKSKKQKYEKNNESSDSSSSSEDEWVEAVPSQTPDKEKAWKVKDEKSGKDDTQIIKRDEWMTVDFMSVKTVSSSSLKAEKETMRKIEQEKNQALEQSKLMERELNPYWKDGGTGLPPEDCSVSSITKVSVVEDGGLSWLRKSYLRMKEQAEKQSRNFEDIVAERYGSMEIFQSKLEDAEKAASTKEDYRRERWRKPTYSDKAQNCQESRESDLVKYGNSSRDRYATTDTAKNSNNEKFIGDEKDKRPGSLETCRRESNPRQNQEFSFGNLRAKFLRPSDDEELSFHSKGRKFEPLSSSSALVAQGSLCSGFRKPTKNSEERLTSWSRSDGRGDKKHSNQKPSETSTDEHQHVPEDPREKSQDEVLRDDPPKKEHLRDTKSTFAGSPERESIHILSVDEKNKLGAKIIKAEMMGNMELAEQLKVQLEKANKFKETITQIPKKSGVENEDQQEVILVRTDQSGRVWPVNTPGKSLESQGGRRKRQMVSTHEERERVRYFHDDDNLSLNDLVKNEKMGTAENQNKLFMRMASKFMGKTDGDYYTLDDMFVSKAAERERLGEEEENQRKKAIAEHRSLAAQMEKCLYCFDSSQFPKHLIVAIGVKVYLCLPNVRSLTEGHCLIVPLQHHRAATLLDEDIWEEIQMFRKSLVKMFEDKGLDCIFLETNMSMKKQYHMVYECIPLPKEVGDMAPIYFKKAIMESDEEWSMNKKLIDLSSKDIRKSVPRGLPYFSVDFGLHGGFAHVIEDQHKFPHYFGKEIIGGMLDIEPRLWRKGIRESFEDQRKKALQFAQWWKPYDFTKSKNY
B2: Speckle-type POZ protein (Homo sapiens), O43791 (parent)
chain: B1 chain
partner: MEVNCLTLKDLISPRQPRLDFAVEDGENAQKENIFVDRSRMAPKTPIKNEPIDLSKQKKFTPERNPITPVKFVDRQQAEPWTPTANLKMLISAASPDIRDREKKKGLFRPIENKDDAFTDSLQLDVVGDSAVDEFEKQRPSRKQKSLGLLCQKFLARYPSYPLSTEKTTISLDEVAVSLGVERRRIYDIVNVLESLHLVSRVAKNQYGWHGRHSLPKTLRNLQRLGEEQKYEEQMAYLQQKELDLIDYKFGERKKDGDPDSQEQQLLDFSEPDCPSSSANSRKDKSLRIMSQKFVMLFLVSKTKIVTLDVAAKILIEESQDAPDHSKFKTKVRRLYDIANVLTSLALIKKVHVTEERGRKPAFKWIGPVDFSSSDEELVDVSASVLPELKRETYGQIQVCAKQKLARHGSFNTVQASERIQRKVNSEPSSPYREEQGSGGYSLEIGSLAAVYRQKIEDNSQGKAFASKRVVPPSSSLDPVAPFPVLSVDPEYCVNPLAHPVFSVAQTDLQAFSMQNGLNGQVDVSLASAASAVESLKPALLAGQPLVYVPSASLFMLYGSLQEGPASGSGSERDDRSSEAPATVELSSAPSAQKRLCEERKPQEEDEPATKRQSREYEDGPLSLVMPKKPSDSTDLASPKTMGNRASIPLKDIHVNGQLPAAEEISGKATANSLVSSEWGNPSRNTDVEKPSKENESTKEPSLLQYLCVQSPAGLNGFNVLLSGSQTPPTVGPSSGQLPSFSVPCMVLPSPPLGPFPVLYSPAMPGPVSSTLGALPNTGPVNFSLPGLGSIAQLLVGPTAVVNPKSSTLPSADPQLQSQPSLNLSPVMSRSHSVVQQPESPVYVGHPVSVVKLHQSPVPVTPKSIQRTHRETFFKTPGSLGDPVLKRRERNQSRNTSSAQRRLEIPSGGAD
B3: Speckle-type POZ protein (Homo sapiens), O43791 (parent)
chain: B1 chain
partner: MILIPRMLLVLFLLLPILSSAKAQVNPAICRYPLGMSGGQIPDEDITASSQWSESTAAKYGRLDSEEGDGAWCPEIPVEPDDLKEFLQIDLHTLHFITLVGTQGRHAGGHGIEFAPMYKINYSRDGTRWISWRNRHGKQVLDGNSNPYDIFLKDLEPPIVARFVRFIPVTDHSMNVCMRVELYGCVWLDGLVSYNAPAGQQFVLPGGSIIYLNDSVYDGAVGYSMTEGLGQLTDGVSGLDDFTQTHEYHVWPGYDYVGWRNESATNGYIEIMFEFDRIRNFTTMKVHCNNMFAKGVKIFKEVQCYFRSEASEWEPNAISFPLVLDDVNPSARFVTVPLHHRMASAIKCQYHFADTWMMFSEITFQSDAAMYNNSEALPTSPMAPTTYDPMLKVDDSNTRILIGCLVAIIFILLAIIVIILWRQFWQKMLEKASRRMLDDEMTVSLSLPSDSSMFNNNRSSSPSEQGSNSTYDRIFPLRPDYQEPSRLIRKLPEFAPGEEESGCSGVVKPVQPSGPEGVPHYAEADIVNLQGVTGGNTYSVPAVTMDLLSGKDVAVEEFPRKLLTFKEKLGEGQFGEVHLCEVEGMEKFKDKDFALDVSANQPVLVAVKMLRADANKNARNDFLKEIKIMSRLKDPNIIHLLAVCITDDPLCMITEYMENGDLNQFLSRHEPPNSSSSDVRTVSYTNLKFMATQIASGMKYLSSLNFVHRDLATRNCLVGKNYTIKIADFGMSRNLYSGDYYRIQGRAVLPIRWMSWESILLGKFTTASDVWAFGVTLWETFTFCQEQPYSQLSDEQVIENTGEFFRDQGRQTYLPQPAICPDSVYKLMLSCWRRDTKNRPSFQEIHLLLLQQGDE

Variants of: B1
Conditions: with CWF19L2, Q2TBE0

Row | Variant | effect of a mutation on the interaction
1 | MSRVPSPPPPAEMSSGPVAESWCYTQIKVVKFSYMWTINNFSFCREEMGEVIKSSTFSSGANDKLKWCLRVNPKGLDEESKDYLSLYLLLVSCPKSEVRAKFKFSILNAKGEETKAMESQRAYRFVQGKDWGLKKFIRRDFLLDEANGLLPDDKLTLFCEVSVVQDSVNISGQNTMNMVKVPECRLADELGGLWENSRFTDCCLCVAGQEFQAHKAILAARSPVFSAMFEHEMEESKKNRVEINDVEPEVFKEMMCFIYTGKAPNLDKMADDLLAAADKYALERLKVMCEDALCSNLSVENAAEILILADLHSADQLKTQAVDFINYHASDVLETSGWKSMVVSHPHLVAEAYRSLASAQCPFLGPPRKRLKQS [F133L] | with no effect

Variants of: B1
Conditions: with CWF19L2, Q2TBE0
Remark: another data set of the same source

Row | Variant | effect of a mutation on the interaction
2 | MSRVPSPPPPAEMSSGPVAESWCYTQIKVVKFSYMWTINNFSFCREEMGEVIKSSTFSSGANDKLKWCLRVNPKGLDEESKDYLSLYLLLVSCPKSEVRAKFKFSILNAKGEETKAMESQRAYRFVQGKDWGVKKFIRRDFLLDEANGLLPDDKLTLFCEVSVVQDSVNISGQNTMNMVKVPECRLADELGGLWENSRFTDCCLCVAGQEFQAHKAILAARSPVFSAMFEHEMEESKKNRVEINDVEPEVFKEMMCFIYTGKAPNLDKMADDLLAAADKYALERLKVMCEDALCSNLSVENAAEILILADLHSADQLKTQAVDFINYHASDVLETSGWKSMVVSHPHLVAEAYRSLASAQCPFLGPPRKRLKQS [F133V] | with no effect

Variants of: B1
Conditions: with CWF19L2, Q2TBE0
Remark: another data set of the same source

Row | Variant | effect of a mutation on the interaction
3 | MSRVPSPPPPAEMSSGPVAESWCYTQIKVVKFSYMWTINNFSFCREEMGEVIKSSTFSSGANDKLKWCLRVNPKGLDEESKDYLSLCLLLVSCPKSEVRAKFKFSILNAKGEETKAMESQRAYRFVQGKDWGFKKFIRRDFLLDEANGLLPDDKLTLFCEVSVVQDSVNISGQNTMNMVKVPECRLADELGGLWENSRFTDCCLCVAGQEFQAHKAILAARSPVFSAMFEHEMEESKKNRVEINDVEPEVFKEMMCFIYTGKAPNLDKMADDLLAAADKYALERLKVMCEDALCSNLSVENAAEILILADLHSADQLKTQAVDFINYHASDVLETSGWKSMVVSHPHLVAEAYRSLASAQCPFLGPPRKRLKQS [Y87C] | with no effect

Variants of: B2
Conditions: with e2f7_human E2F7, Q96AV8

Row | Variant | effect of a mutation on the interaction
4 | MSRVPSPPPPAEMSSGPVAESWCYTQIKVVKFSYMWTINNFSFCREEMGEVIKSSTFSSGANDKLKWCLRVNPKGLDEESKDYLSLCLLLVSCPKSEVRAKFKFSILNAKGEETKAMESQRAYRFVQGKDWGFKKFIRRDFLLDEANGLLPDDKLTLFCEVSVVQDSVNISGQNTMNMVKVPECRLADELGGLWENSRFTDCCLCVAGQEFQAHKAILAARSPVFSAMFEHEMEESKKNRVEINDVEPEVFKEMMCFIYTGKAPNLDKMADDLLAAADKYALERLKVMCEDALCSNLSVENAAEILILADLHSADQLKTQAVDFINYHASDVLETSGWKSMVVSHPHLVAEAYRSLASAQCPFLGPPRKRLKQS [Y87C] | with no effect

Variants of: B2
Conditions: with e2f7_human E2F7, Q96AV8
Remark: another data set of the same source

Row | Variant | effect of a mutation on the interaction
5 | MSRVPSPPPPAEMSSGPVAESWCYTQIKVVKFSYMWTINNFSFCREEMGEVIKSSTFSSGANDKLKWCLRVNPKGLDEESKDYLSLYLLLVSCPKSEVRAKCKFSILNAKGEETKAMESQRAYRFVQGKDWGFKKFIRRDFLLDEANGLLPDDKLTLFCEVSVVQDSVNISGQNTMNMVKVPECRLADELGGLWENSRFTDCCLCVAGQEFQAHKAILAARSPVFSAMFEHEMEESKKNRVEINDVEPEVFKEMMCFIYTGKAPNLDKMADDLLAAADKYALERLKVMCEDALCSNLSVENAAEILILADLHSADQLKTQAVDFINYHASDVLETSGWKSMVVSHPHLVAEAYRSLASAQCPFLGPPRKRLKQS [F102C] | with no effect

Variants of: B2
Conditions: with e2f7_human E2F7, Q96AV8
Remark: another data set of the same source

Row | Variant | effect of a mutation on the interaction
6 | MSRVPSPPPPAEMSSGPVAESWCYTQIKVVKFSYMWTINNFSFCREEMGEVIKSSTFSSGANDKLKWCLRVNPKGLDEESKDYLSLYLLLVSCPKSEVRAKFKFSILNAKGEETKAMESQRAYRFVQGKDWGVKKFIRRDFLLDEANGLLPDDKLTLFCEVSVVQDSVNISGQNTMNMVKVPECRLADELGGLWENSRFTDCCLCVAGQEFQAHKAILAARSPVFSAMFEHEMEESKKNRVEINDVEPEVFKEMMCFIYTGKAPNLDKMADDLLAAADKYALERLKVMCEDALCSNLSVENAAEILILADLHSADQLKTQAVDFINYHASDVLETSGWKSMVVSHPHLVAEAYRSLASAQCPFLGPPRKRLKQS [F133V] | with no effect

Variants of: B2
Conditions: with e2f7_human E2F7, Q96AV8
Remark: another data set of the same source

Row | Variant | effect of a mutation on the interaction
7 | MSRVPSPPPPAEMSSGPVAESWCYTQIKVVKFSYMWTINNFSFCREEMGEVIKSSTFSSGANDKLKWCLRVNPKGLDEESKDYLSLYLLLVSCPKSEVRAKFKFSILNAKGEETKAMESQRAYRFVQGKDWGLKKFIRRDFLLDEANGLLPDDKLTLFCEVSVVQDSVNISGQNTMNMVKVPECRLADELGGLWENSRFTDCCLCVAGQEFQAHKAILAARSPVFSAMFEHEMEESKKNRVEINDVEPEVFKEMMCFIYTGKAPNLDKMADDLLAAADKYALERLKVMCEDALCSNLSVENAAEILILADLHSADQLKTQAVDFINYHASDVLETSGWKSMVVSHPHLVAEAYRSLASAQCPFLGPPRKRLKQS [F133L] | with no effect

Variants of: B3
Conditions: with ddr2_human DDR2, Q16832

Row | Variant | effect of a mutation on the interaction
8 | MSRVPSPPPPAEMSSGPVAESWCYTQIKVVKFSYMWTINNFSFCREEMGEVIKSSTFSSGANDKLKWCLRVNPKGLDEESKDYLSLYLLLVSCPKSEVRAKCKFSILNAKGEETKAMESQRAYRFVQGKDWGFKKFIRRDFLLDEANGLLPDDKLTLFCEVSVVQDSVNISGQNTMNMVKVPECRLADELGGLWENSRFTDCCLCVAGQEFQAHKAILAARSPVFSAMFEHEMEESKKNRVEINDVEPEVFKEMMCFIYTGKAPNLDKMADDLLAAADKYALERLKVMCEDALCSNLSVENAAEILILADLHSADQLKTQAVDFINYHASDVLETSGWKSMVVSHPHLVAEAYRSLASAQCPFLGPPRKRLKQS [F102C] | with no effect
